This passage reports EC50, CRE-luciferase reporter in HEK293-GLP1R-CRE-Luc cells results from patent US20220298215A1.

This test addresses glucagon-like peptide 1 (GLP-1) receptor. The test can be described thus: cell-based or functional assay.

Sequence of glucagon-like peptide 1 (GLP-1) receptor (P43220 24-463): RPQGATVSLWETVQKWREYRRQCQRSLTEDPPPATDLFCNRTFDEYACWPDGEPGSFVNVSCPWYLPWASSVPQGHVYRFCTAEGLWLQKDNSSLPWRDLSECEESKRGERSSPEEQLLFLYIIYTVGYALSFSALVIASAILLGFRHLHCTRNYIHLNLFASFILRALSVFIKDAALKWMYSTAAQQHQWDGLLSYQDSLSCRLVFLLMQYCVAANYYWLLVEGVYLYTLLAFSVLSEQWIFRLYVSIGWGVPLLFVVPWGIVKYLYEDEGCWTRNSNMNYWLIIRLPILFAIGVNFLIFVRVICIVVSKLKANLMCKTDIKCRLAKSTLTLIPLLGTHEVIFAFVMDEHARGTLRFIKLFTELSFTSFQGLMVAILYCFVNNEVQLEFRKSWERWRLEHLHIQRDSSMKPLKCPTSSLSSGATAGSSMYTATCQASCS

For the substance Dulaglutide (Fc fusion), the EC50, CRE-luciferase reporter in HEK293-GLP1R-CRE-Luc cells was 0.0237 nM.
